Molecular target: His6-tagged 13C,15N-H1 (human, UniProt P07305 1-194)
Assay: NMR titration

Sequence of His6-tagged 13C,15N-H1 (P07305 whole entry): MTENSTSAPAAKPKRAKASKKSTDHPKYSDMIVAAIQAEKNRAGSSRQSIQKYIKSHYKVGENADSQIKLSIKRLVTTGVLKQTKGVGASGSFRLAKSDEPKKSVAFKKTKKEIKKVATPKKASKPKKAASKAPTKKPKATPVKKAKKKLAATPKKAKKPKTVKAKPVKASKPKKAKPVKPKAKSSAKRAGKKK

B1: prothymosin α (unlabeled, wildtype) (natural protein, human, UniProt P06454 1-111, looked up)
chain: MSDAAVDTSSEITTKDLKEKKEVVEEAENGRDAPANGNAENEENGEQEADNEVDEEEEEGGEEEEEEEEGDGEEEDGDEDEEAESATGKRAAEDDEDDDVDTKKQKTDEDD
  stoichiometry N: 1
